This experiment has as its target KIR3DL2CD3ε fusion protein on Jurkat reporter cells (UniProt P43630). The experiment in a line: cell-based or functional assay.

Sequence of KIR3DL2CD3ε fusion protein on Jurkat reporter cells (P43630 other isoform, or with tags, fused parts or gaps limits assumed): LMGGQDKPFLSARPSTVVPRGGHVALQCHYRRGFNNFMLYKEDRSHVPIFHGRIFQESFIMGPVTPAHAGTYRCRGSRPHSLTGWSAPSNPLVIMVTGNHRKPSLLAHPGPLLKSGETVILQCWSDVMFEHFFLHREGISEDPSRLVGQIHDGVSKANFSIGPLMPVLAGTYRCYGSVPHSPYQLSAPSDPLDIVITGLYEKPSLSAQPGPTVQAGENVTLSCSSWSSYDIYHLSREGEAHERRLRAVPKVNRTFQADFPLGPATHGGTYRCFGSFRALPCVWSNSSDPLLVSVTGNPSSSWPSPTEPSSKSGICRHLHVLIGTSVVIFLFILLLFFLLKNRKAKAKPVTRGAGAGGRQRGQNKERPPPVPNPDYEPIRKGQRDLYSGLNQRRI

In turn, “HLA-B27 on transfected LCL.LBL.721.221 cells (ligand)” came in with an IL-2 production by KIR3DL2CD3ε transduced Jurkat reporter cells (ELISA) of 6 fold.

(Values after patent US20150232556A1.)
